Laboratory results taken from the nanobody polyreactivity screen of Harvey et al. (2022).

Assay: yeast display, Sf9 membrane polyspecificity reagent, FACS + sequencing; frameworks hold sequencing errors
How it was run: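 Synthetic nanobody libraries on Saccharomyces cerevisiae BJ5465 were galactose-induced for 36–48 hours, stained 1 hour at 4 °C with 10% biotinylated, detergent-solubilized Sf9 membrane reagent and enriched on streptavidin microbeads. FACS then separated cells into low and high (top ~1%) gates by anti-HA (expression) and streptavidin (reagent binding) fluorescence. Genes were colony-PCR amplified, MiSeq 2 × 250 sequenced and CDR-length filtered. A clone's polyreactivity label is that of its gate of origin.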

Sequence	polyreactivity (PSR sort gate)
QVQLVESGGGLVQAGGSLRLSCAPSGFIFYTNAMGWYRQAPGKDRELVAAITCIGVSTYYADSVKGRFTISRDYAKNTVYLKMNSLKPEDTEVYYCAADRNFLIFTPDNLTMDYWGQGTQVTVSS	low polyreactivity
QVQLVESGGGLVQAGGSLRLSCAASGRIFTIYAMGWYRQAPGKERELVARITRGTSTYADSVKGRFTISRDNAKNTVYLQMNSLKPEDTAVYYCAADPTDTSLGDYWGQGTQVTVSS	high polyreactivity
QFQLVESGGGLVQAGGSLRLSCAASGSIFSYYAMGWYRQAPGKERELVAGITWSGGRTYYADSVKGRFTISRDNAKNTVYLQMNSLKPEDTAVYYCAAAVKRALDYWGQGTQVTVSS	high polyreactivity
QVQLVESGGGLVQAGGSLRLSCAASGSIFGYNAMGWYRQARGKERELVAAITSSGGSTYYADSVKGRFTISRDNSKNTVYLQMKSLKPEDTAVYYCNARDWYIVWYDYWGQGTQVTVSS	low polyreactivity
QVQLVESGGALVQAGGSLRLSCAASGYIFDRYAMGWYRQAPGKEWELVAAISGRGGSTYYADSVKGRFTISRDNAKNTVYLQMNSLKPEDTAVYYCAAARSWHLYHRYDYWGQGTQVTVSS	high polyreactivity
QVQLVESGGGLVQAGGSLRLSCAASGRTIDSYAMGRNRQAPGKERELVAAISWGGGSTYYADSVKGRFTISRDNAKNTVYLQMNSLKPEDTAVYYCAARWNYTEFDYWGQGTQVTVSS	low polyreactivity
QVQLVYSGGGLVQAGGSLRLSCAASGRTFARYAMGWYIQAPWKERELVAAITRSGGSTTYADSVKGLFTISRDNAKNTVYVQLYSLKPVYTAVYFCASSTSLRLDYWGQGTQVTVSS	high polyreactivity
QVQLVESGVGLVQAGGSLRLSCAASGSTYRYAMGWYRQAPGKERELVAAISRSTGSTYYADSVKGRLTISRDNANNTVNLQMNRLKPEDTAVYYCARDVYYRGYKYGYWGQGTQVTVSS	high polyreactivity
QVQLVESGGGLVQAGGSLRLSCAASGRTFWRYAMGWYRQAPGKERELVARISSGGSTYYADSVKGRFTISRDNAKNTVYLQMNSLKPEDTAVYYCAVLSRHRRVPWYRYNYWGQGTQVTVSS	low polyreactivity
QVQLVESGGGLVQAGGSLRLSCAASGRTFVIYTMGWYRQAPGKERELVAAITQRGGITYYADSVKGRFTISRDNAKNTVYLQMNSLKPEDTAVYYCNSGRTYRRLGDYWGQGTQVTVSS	high polyreactivity
QVQLVESGGGFVQAGGSLRLSCAASGLTLFRYAMGWYSQAPGKEREFVAAISPSGDRTYYADSVKGRFTISRDNAKNTVDLQMNSLKPEDTAVYYCNAWRYDYWGQGTQVTVSS	high polyreactivity
QVQLVESGGGLVQAGGSLRLSCAASGFTFYRYVMGWYRQAPGKERELVAAISWNGGRTYYADSVKGRFTISRDNAKNTVYLQMNSLKPEDTAVYYCAAVPGSRSYGGDYWGQGTQVTVSS	high polyreactivity
QVQLVQTGGGLVQAGGSLRLSCAASGSTFWYNAMGWSRQAPGKERELVARISYSGGSTYYADSVKGRFTISRDNAKNTVYLQMNCLKPEDTAVEYCAGRRPYKYDYWGQGTQVTVSS	high polyreactivity
QVQLVETGGGLVQAGGSLRLRCAASGSIFVPYTMGWYRQAPGKERELVASISYSGGTTYYADSEKGRFTISRDNAKNTVYLQMNSLKPEDTAVYYCAADWDESYSYRRYRHYDYWGQGTQLTVSS	low polyreactivity
QVQLVESGGGLFQAGGSLRLSCSASGFIFRGYAMGWSRQAPGKERELVAAISTGGGRTYYADSVKGRFTISRDNAKNTVYLQMNSLKPEDTAVYYCNRLSYTQVLMDYWGQGTQVTVSS	high polyreactivity
QDQLVESGGGLVQAGGSLRLSCAASGFTFRRYAMGWYRQAPGKERELVAAISYTGGITYYADSVKGRFTISRDNAKNTVYLQMNSLKPEDTAVYYCAAESVWTWDYTTAGMDYWGQGTQVTVSS	high polyreactivity
QVQLVESGGGLVQAGGSLRLSCAASGSTFPRYAMGWYRQAPGKERELVAAISKSGTITSYADSVKGRFTISRDNAKNTVYLQMNSLKPEDTAVYYCAKGRYWPYDYWGQGTQVTVSS	high polyreactivity
QVHLVESGGALVQAGGSLRLSCAASGLTFVTNSMGWYRQAPGKERELVAAISLGGGSTYYADSVKGRFTISLDNAKNTVYLQMNSLKPEDTAVYYCAAVPGWVRQAVGWVLSLLDYCGQGTQVTVSS	low polyreactivity
QVQLVESGGGLVQAGGSLRLSCAASGSTFQWYAMGWYRQAPGKERELVAAINKSGGTTYYADSVKGRFTISRDNAKNTVYLQMNSLKPEDTAVYYCAADTQQRGVYPRWWNPEFDYWGLGTQVTVSS	low polyreactivity
QVQLVESGGGLVQAGGSLRLSCADSGRTFYYYAMGWYRQAPGKERELVASISYSAGRTYADSVKGRFTISRDNAKNTVYLQMNSLKPEDTAVYYCNADVTTVPYTNDYWGQGTQVTVSS	high polyreactivity
QVQLVESGGGLVQAGGSLRLSFAASGRTFDRYDMGWYRQAPGKERELVATISSSGGSTYYADSVKGRFTISRDNAKNTVYLQMNSLKPEDTAVYYCAADPSGDYWGQGTQVTVSS	low polyreactivity
QVQLVESGGGLVQAGGSLRLSWAASGFIFGFYAMGWYRQAPGKERELVADITSSGGSTYYADSVKGRFTISRDNAKNTVYLQMNSLKQEDTAVYYCAADGWLHNFYPGTGLDYWGQGTQVTVSS	low polyreactivity

Sequence	polyreactivity (PSR sort gate)
QVQLVESGGGLVQAGGSLRLSCAASGGTFRYNAMGWYRQAPGKERELVAAITSVGITNYADSVKGRFTISRDNAKNTVYLQMNSLKPEDTAVYYCAKRYYRYGARSWYYPYDYWGQGTQVTVSS	high polyreactivity
QVQLVESGGGLVQAGGSLRLSCAASGRIFAQNAMGWYRQAPGKERELVAAISWGGGGTYYADSVKGRFTISRDNAKNTVYLQMNSLKPEDTAVYYCAADSPGFGAWDRYEYWGQGTQVTVSW	low polyreactivity
QVQLVESGGGLVQAGGSLRLSCAASGSIFLVNDKGWYRPAPGKERELVAAISSRGGSTYYADSVKGRFTISRDNAKNTVYLQMNSLKPEDTAVYYCAALQRPLEGLLYYYWGQGTPVTVSS	low polyreactivity
QVQLEESGGGLVQAGRSLRLISAASGRMFGWNAMGWYRQAPWKERELVASIRSGGRTNYADSVKGRFTISRDNAKNTVYLQMNSLKPEDTAVYYCAVGPYYQSTQIYDYWGQGTQVTVSS	low polyreactivity
QVQLVESGGGLVQAGGSLRLSCAASGRIFERYPMGWYRQAPGKERELVAGISISGGGTYYADSVKGRFTISRDTAKNTVYLQRNSLKPEDTAVSYCAATFPREEYGYWGQGTLVTVSS	low polyreactivity
QVQLVESGGGLVQAGGSLRLSCAASGITFQHYSMGWYRQAPGKERELVAAISSSGGRTYYADSVKGRFTISRDNAKNTVYLQMNSLKPEDTAVYYCNGVDRYNRFDSWGQGTQVTVSS	high polyreactivity
QVQLVESGGGLVQEGGSLRLSCAASGFIVSYYTMGWYRQAPGKERELVAAIRSSGGSTYADSVKGRFTISRDNAKNTVYLQMNSLKPEDTAVYYCAAVQTWRWVYARDYWGQGTQVTVSS	high polyreactivity
QVQLVESGGGLVQAGGSLRLSCAASGSIFKYYAMGWYRQATGKERELVAAISSGGSTKYADSVKGRFTITRDNAKNTVYLQMNSLKPEDTAVYYCAARDPSRHARRAYDYWGQGTQVTVSS	low polyreactivity
QVQLVESGAGLVQAGGSLRLSCAASGRTFRINTMGWSIQAPGKERELVATITGSGGSTYYADSVKGRFTISRDNAKNTVYLQMNSLKPEDTAVYYCAAVGDQNEYDYWGQGTQVTVSS	low polyreactivity
QVQLVESGGGLVQAGGSLRLSCAASGRTFPYYDIGWYRKAPGKERELVAAITSGGTTNYADSVKGRFTISRDNAKNTVYLQMNSLKPEDTAVYNCAAGSPWYYFSSYGYWGQGTQVTVSS	low polyreactivity
QVQLVESGGGLVQAGGSLRLSCAASGSTFGQYGMGWYRQAPGKERELVAAIRIGGSTNYADSVKGRFTISRDNAKNTVYLQMNSLKPEDTAVYYCNAGGTPTWTHGGYIELDYWGQGTQVTVSS	low polyreactivity
QVQLVESGGGLVQAGGSLRLSCAASGFTFWFYAMGWYRQAPGKERELVAAISWDGSRTYYADSVKGRFTISRDHAKNTVYLQMNSLKPEDTAVYYCAAESEDSNYNYWGQGTQVTVSS	high polyreactivity
QVQLVESGGGLVQAGGSLRLSCAASGIIFVKYTMGWYRQAPGKERELVAAISRSGGSTYYADSVKGRFTISRDNAKNTVYLQMNSLKPEDTAVYYCNAVSRKVYPGPMDYWGQGTQVTVSS	high polyreactivity
QVQLVESGGGLVQAGGSLRLSCAASGSIFFDNAMGWYRQAPGKERELVAAIDSSGGSTYYADSVKGRFTISRDNAKNTVYLQMNSLKPEDTAVYYCAREQYVPSPYSFFDEFEYWGQGTQVTVSS	low polyreactivity
QVQLVESGGGLVQAGGSLRLSCAASGYIFKIKAMGWYRQAPGKERELVATITWSTGTTYYADSVKGRFTISRDNAKNTVYLQMNSLKPEDTAVYYCNATAIIRIGVLPGDYWGQGTQVTVSS	low polyreactivity
QVQLVESGGGLVQAGGSLRLSCAASGSTSVGNAMGWSRQAPGKERELVAAISRIGGTTYYADSVKGRFTISRDNAKNTVYLQMNSLKPEDPAVYYCNVLKRYWSGRVDYWGQGTQVTVSS	high polyreactivity
QVQLVESGGGLVQAGGSLRLSCAASGFTFYRYAMGWYRQAPGKERELVARISWSGGSTYYADSVKGRFTISRDNAKNTVYLQMNSLKPEDTAVYYCNARRLFESWKYDYWGQGTQVTVSS	high polyreactivity
QVQLVESGGGLVQAGGSLRLSCAASGFSFFKYAMGWYRQAPGKERELVAAISSSGGSTYYADSVKGRFTISRDNAKKTVYLQMNSLKPEDTAVYYCAVDNLKCRAQSLDGFDYWGQGTQVTVSS	high polyreactivity
QVQLVESGGGLVQAGGSLRLSCAASGIIFLYYAMGWYRQAPGKERELVAAISRSGGRTFYADSVKGRFTISRDNAKNTVFLQMNSLKAEDTAVYYCAADALIYYKGSPDYYWGQGTQVTVSS	high polyreactivity
QVQLVESGGGLVQAGGSLRLSCAASGSTFGIYPMAGNRTEPGKERELVAAISSGGSTNYADSVKGRFTISRDNAKNSVYLQMNSLNPEDTAVYYCAVESVYEYGGYVDSAYDYWGQGTQVTVSS	low polyreactivity
QVQLVESGGGLVQAGGSLRLSCAASGFTFSQNAMGWYRQAAGKERELVAAITGDGGSTYYADSVKGRFTISRDNAKNTVFLQMNSLKPEDTAVYYCAADPSPYSAFGIYWFRYDYWGQGTQVTVSS	low polyreactivity
